Results taken from US5874218, “Method for detecting a target compound in a substance using a nucleic acid ligand” (NeXstar Pharmaceuticals, Inc.).

Assays:
[1] = target: hTSH (thyroid stimulating hormone) (Homo sapiens, UniProt P01215;P01222 P01215:25-116,P01222:21-132); experiment: dot blot on nitrocellulose, 50-800 nM hTSH, TEM buffer with 0.1% hSA, 0.5 M urea wash; conditions: tags: Becton Dickinson, Mr 27,700, 9 IU/mg; label: internally radiolabeled
Protocol: hTSH was suspended in TEM buffer (300 ml) containing 0.1% hSA (w/v) and applied to pre-wetted nitrocellulose filters (0.45 micron; BioRad) under suction. Gel-purified, internally labeled nucleic acid ligand T-15 (SEQ ID NO: 3) was then applied to the blots in 50 ml of TEM buffer (0.2 pmoles/ml) and filtered gently. Filters were immediately washed three times with 300 ml of 0.5M urea in the same buffer. The blots were dried and analyzed with a phosphorimager and by autoradiography.
The results wherein different concentrations of hTSH (from 800 nM (177 mIU/ml) to 50 nM (11 mIU/ml)) blotted on a nitrocellulose membrane were detected by radiolabeled nucleic acid ligand T-15 are shown in FIG. 4. Very low levels of background binding of RNA to nitrocellulose filters in the absence of hTSH (but with hSA in the buffer) was accomplished by washing blots with 0.5M urea in the binding buffer. This step eliminated most nonspecific binding, yet leaving specific binding of ligand T-15 to hTSH largely unaffected. […] However, with the affinity-selected radiolabeled ligand T-15, the radioactive signal on the blot correlated with the concentration of hTSH used. There is a linear relationship between the radioactive signal and the amount of hTSH up to 100 mIU/ml; the signal saturates above this concentration.

[2] = target: hCG (chorionic gonadotropin) (Homo sapiens, UniProt P01215;P0DN86 P01215:25-116,P0DN86:21-165); experiment: dot blot of hCG in urine; detectable at 1.9 nM, saturates above 500 nM; higher signal in low salt buffer with 2 mM MgCl2; conditions: label: radiolabeled
Chain of hCG (chorionic gonadotropin) (P01215 25-116, chain 1 of 2, other chains not shown): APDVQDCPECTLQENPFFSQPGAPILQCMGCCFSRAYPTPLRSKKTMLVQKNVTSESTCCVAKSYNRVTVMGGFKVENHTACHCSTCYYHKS
Protocol: Test urine (obtained from pregnant individuals) and control urine (obtained from males) samples were pre-filtered through 0.2 mm polysulfone filters (Gelman Sciences) to remove particulate matter. hCG suspended in control urine to various concentrations (300 ml) was blotted onto pre-wetted nitrocellulose filters (from BioRad) under vacuum. Radiolabeled nucleic acid ligand to hCG, H-42 RNA (SEQ ID NO: 4)(100 ml of 1 pmole/ml) was then added to blots and filtered. Blots were immediately washed two times with 300 ml of TEM buffer. The blots were dried and analyzed by autoradiography and phosphorimager (Fuji).
In preliminary studies, anti-hCG antibodies were first applied to nitrocellulose blots to capture hCG and subsequently the radiolabeled RNA was used to detect the hormone. Such anti-hCG antibodies were required only if hCG was suspended in a buffer. However, if hCG in urine was used there was no significant difference in the signal in the presence and absence of antibodies. This may be due to the presence of other proteins in urine that serve as nonspecific carriers, effectively retaining hCG on the membrane. […] The signal saturates at high hCG concentration (>500 nM). Even at 1.9 nM hCG concentration, signal above background level was detected. Compared to control male urine (blots 1–3), the urine from a pregnant […] […]

Chain of hTSH (thyroid stimulating hormone) (P01215 25-116, chain 1 of 2): as the sequence (P01215 25-116, chain 1 of 2, other chains not shown) above
Chain of hTSH (thyroid stimulating hormone) (P01222 21-132, chain 2 of 2): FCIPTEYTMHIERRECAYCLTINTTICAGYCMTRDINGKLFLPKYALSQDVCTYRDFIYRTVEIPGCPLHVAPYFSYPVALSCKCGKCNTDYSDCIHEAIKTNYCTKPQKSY

| Binder | binding result [1] | binding result [2] |
| --- | --- | --- |
| T-15 (ssRNA, 2'-NH2 on all C and U) RNA: GGGAGGACGAUGCGGAUGUUGGCAGCAGGGUCCGACGGCGUAACCUUGCCAGCUGCAGACGACUCGCCCGA | binds |  |
| H-42 (ssRNA, 2'-NH2 pyrimidines (library chemistry)) RNA: GGGAGGACGAUGCGGACAAGGGCCUGAGUGUGGAGGGCACGUGGAGGGGACUGGCCAGACGACUCGCCCGA |  | binds |
